B1: dsDNA random (dsDNA)
DNA 1: CCGCAGATCCAGACGAGAGC
DNA 2: GCTCTCGTCTGGATCTGCGG
B2: ssDNA random (ssDNA)
DNA: CCGCAGATCCAGACGAGAGC
B3: ssDNA gaaC (ssDNA)
DNA: CCGCAGAGAACGACGAGAGC
B4: 18 nt ssDNA (ssDNA 5) (ssDNA)
DNA: GAGACCGGAATTCGAGCT
B5: dsDNA gaaC (dsDNA)
DNA 1: CCGCAGAGAACGACGAGAGC
DNA 2: GCTCTCGTCGTTCTCTGCGG

Tests used:
CspL [1] = biological target: T1, CspL (Bacillus coagulans 2-6, UniProt A0A0C5C4D7 1-67); assay: BLI; BLI, streptavidin sensor with 5'-biotin oligo; 20 mM PBS pH 7.4, 100 mM NaCl, 0.1% BSA, 0.02% Tween 20; CspL 20 ug/ml; temperature not in the material; details: protein: recombinant, tags: His, label: 5'-biotin
CspL [2] = biological target: T1, CspL; assay: BLI; 2100, 210 nM CspL; binding lost at 21 nM; BLI, streptavidin sensor with 5'-biotin oligo; 20 mM PBS pH 7.4, 100 mM NaCl, 0.1% BSA, 0.02% Tween 20; CspL 20 ug/ml; temperature not in the material; details: protein: recombinant; tags: His; label: 5'-biotin

Binder | binding result (CspL [1]; blunt) | binding result (CspL [1]) | further results
B1 | no binding | – | –
B2 | – | binds | –
B3 | – | binds | –
B4 | – | – | binding result (CspL [2]): binds
B5 | no binding | – | –

Reference: article PMC7966797, “A cold shock protein promotes high-temperature microbial growth through binding to diverse RNA species”
